This experiment has as its target human full length IgG1 (Calbiochem) (human). Kind of experiment: BIAcore SPR, IgG1 immobilized, soluble receptor injected.

In turn, FcγRIIIa V158 (receptor) displayed a koff of 0.0139 s⁻¹.
Turning to FcγRIIIa F158 (receptor), the fold faster koff against FcγRIIIaV158 was determined as 6 fold and the koff worked out at 0.0858 s⁻¹.

The values are drawn from US20090215639A1.
